Reference: patent US20240025955

System: MMP3 resistant rAgrin (SEQ ID NO: 19)

With MMP3 the MMP3 degradation was “is resistant to MMP3 degradation” and the “degradation of Agrin in the presence of increasing amounts of MMP3 for 24 hours” value was “mutation of the MMP-3 cleavage site reduces degradation of Agrin (polypeptide defined by SEQ ID NO: 19)”.
